The values that follow come from paper PMC3901155.

Substrate in the data set: Nc1ncnc2c1ncn2[C@@H]1O[C@H](COP(=O)(O)O)[C@@H](OP(=O)(O)O)[C@H]1O
The experiment in a line: purified protein. It is filed as biochemical, Rattus norvegicus. Conditions: 5 mM p-nitrophenyl sulfate, pH 7.0, 37 °C.

B1: AST-IV (Rattus norvegicus) (protein)
chain: MEFSRPPLVHVKGIPLIKYFAETIGPLQNFTAWPDDLLISTYPKSGTTWMSEILDMIYQGGKLEKCGRAPIYARVPFLEFKCPGVPSGLETLEETPAPRLLKTHLPLSLLPQSLLDQKVKVIYIARNAKDVVVSYYNFYNMAKLHPDPGTWDSFLENFMDGEVSYGSWYQHVKEWWELRHTHPVLYLFYEDIKENPKREIKKILEFLGRSLPEETVDSIVHHTSFKKMKENCMTNYTTIPTEIMDHNVSPFMRKGTTGDWKNTFTVAQNERFDAHYAKTMTDCDFKFRCEL
As a reminder, the Km is the concentration of substrate that gives half-maximal velocity. Consider B1, for which the Km is 25.3 µM.
